Patent publication US20180092975A1

Assays:
[1] = target: human PD-1 expressed on cells (human) (UniProt Q15116); test: flow cytometry on CHO cells expressing human PD-1, detection with anti-human IgG Fc, PE GeoMFI; set-up: unit not given here
[2] = target: cyno PD-1 expressed on cells (cynomolgus monkey) (UniProt B0LAJ3); test: flow cytometry on CHO cells expressing cyno PD-1, detection with anti-human IgG Fc, PE GeoMFI; set-up: unit not given here
Chain of UniProt B0LAJ3 (B0LAJ3 entry or part of it limits assumed): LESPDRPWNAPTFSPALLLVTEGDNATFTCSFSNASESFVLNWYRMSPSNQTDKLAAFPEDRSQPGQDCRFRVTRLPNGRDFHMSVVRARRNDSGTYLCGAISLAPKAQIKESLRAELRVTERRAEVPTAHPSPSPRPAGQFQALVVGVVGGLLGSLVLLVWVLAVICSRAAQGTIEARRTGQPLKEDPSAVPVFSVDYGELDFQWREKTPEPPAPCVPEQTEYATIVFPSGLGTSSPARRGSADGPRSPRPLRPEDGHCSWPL

Chain of UniProt Q15116 (Q15116 25-198 limits assumed): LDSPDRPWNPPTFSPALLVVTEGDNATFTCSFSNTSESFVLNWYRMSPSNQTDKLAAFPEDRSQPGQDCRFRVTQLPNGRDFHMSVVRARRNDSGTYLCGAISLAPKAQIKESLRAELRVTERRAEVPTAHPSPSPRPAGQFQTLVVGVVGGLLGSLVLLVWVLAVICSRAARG

## huIgG1 Fc
[1]
  LogEC50: -7.75
[2]
  LogEC50: -6.89
